# Results taken from PMC5428533.
# Tests used:
# [1] = target: complement component C9 (human) (UniProt P02748); assay: MST; FH (6.67 µM) or C9 (15.15 µM) labelled with NT-647 RED-NHS; non-labelled CbiA diluted 1:2 from 76 to 0.0002 µM; fluid phase, 20% LED power, 80% MST power, 30 s, Monolith NT.115, room temperature, triplicate
# [2] = target: complement regulator Factor H (FH) (human) (UniProt P08603); assay: as above
# Chain of UniProt P08603 (P08603 19-1231): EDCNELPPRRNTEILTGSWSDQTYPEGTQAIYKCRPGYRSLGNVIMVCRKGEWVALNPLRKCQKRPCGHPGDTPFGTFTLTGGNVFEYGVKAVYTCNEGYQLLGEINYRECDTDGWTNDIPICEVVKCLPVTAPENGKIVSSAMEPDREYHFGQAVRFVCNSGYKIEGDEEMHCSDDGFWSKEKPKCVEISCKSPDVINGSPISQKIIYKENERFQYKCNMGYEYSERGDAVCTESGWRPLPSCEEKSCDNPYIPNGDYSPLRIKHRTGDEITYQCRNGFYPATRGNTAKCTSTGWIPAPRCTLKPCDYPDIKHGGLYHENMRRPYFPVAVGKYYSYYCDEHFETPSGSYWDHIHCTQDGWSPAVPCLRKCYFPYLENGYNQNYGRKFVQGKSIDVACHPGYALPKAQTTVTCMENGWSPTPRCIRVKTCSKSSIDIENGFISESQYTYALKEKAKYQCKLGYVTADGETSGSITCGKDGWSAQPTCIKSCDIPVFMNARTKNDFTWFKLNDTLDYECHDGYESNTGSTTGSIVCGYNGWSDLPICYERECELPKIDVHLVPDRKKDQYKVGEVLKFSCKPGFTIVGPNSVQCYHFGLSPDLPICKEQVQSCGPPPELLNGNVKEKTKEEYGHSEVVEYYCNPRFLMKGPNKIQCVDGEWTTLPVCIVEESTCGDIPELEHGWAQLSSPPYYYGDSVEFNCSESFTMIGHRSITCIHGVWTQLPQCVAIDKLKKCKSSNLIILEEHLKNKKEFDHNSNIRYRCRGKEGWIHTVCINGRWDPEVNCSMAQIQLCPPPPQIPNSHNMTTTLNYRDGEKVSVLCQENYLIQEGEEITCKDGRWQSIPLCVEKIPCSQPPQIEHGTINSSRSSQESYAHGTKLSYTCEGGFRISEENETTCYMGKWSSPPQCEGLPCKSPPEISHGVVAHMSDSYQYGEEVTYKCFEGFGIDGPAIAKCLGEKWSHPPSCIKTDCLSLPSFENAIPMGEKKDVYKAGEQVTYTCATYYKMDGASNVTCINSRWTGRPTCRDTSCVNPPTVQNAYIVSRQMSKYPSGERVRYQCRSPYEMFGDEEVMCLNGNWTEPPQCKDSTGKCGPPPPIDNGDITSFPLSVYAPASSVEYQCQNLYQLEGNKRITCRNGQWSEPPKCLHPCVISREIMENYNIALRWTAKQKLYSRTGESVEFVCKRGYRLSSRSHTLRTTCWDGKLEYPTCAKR
# Chain of UniProt P02748 (P02748 22-559): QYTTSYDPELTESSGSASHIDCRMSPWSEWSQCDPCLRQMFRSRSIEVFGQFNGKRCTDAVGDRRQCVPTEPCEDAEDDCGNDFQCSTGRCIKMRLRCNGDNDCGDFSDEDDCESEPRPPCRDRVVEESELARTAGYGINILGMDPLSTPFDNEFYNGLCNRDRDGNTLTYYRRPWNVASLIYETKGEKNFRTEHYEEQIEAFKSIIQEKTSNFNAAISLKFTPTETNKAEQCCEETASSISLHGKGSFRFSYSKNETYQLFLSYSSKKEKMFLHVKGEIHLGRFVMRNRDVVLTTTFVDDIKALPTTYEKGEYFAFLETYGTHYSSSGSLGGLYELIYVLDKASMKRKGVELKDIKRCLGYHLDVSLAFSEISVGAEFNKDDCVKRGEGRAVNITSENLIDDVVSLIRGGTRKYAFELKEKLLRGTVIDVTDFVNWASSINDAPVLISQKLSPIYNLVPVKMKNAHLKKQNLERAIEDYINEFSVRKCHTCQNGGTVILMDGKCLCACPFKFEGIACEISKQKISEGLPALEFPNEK
substance,measurement,setting,value
"CbiA (complement binding and inhibitory protein A) of B. miyamotoi HT31, His6-tagged recombinant protein (natural protein)",Kd,[1],0.0524 µM
same,Kd,[2],6.59 µM
